Reference: patent US20210079088A1 (published 2021)

T1: soluble human IL-4Rα (sIL-4Rα; PEPRO TECH, Catalog Number: 200-04R) (human, UniProt P24394 26-232)
T1 construct: Bought protein; also called shIL-4Rα; soluble hIL-4 Rα
T1 sequence: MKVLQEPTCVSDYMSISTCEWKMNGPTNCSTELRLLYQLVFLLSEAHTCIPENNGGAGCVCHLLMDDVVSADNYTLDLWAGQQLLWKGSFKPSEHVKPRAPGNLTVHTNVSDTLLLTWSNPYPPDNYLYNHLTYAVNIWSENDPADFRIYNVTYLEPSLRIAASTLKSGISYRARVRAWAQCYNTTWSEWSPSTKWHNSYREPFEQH

B1: L1000H1007 (antibody, V domains shown)
VH: EVQLVQSGGGLVHPGGSLRLSCAGSGFTFSRNAMFWVRQAPGKGLEWVSGIGTGGATSYADSVKGRFTISRDNAKNSLYLQMNSLRAEDMAVYYCARGRYYFDYWGQGTLVTVSS
VL: not shown
B2: L1000H1030 (antibody, V domains shown)
VH: EVQLVESGGGLVQPGGSLRLSCAASGFTFSRNAMFWVRQAPGKGLEWVSGIGTGGATNYADSVKGRFTISRDNAKNSLYLQMNSLRAEDTAVYYCARGRYYFPWWGQGTLVTVSS
VL: not shown
B3: L1000H1013 (antibody, V domains shown)
VH: EVQLVESGGGLVHPGGSLRLSCAASGFTFSRNAMFWVRQAPGKGLEWVSGIGTGGATNYADSVKGRFTISRDNAKNSLYLQMNSLRAEDMAVYYCARGRYYFDYWGQGTLVTVSS
VL: not shown
B4: L1000H1015 (antibody, V domains shown)
VH: EVQLVESGGGLVQPGGSLRLSCAGSGFTFSRNAMFWVRQAPGKGLEWVSGIGTGGATNYADSVKGRFTISRDNAKNSLYLQMNSLRAEDMAVYYCARGRYYFDYWGQGTLVTVSS
VL: not shown
B5: L1000H1021 (antibody, V domains shown)
VH: EVQLVQSGGGLVHPGGSLRLSCAGSGFTFSRNAMFWVRQAPGKGLEWVSGIGTGGATNYADSVKGRFTISRDNAKNSLYLQMNSLRAEDTAVYYCARGRYYFPWWGQGTLVTVSS
VL: not shown
B6: L1000H1009 (antibody, V domains shown)
VH: EVQLVESGGGLVHPGGSLRLSCAGSGFTFSRNAMFWVRQAPGKGLEWVSGIGTGGATNYADSVKGRFTISRDNAKNSLYLQMNSLRAEDMAVYYCARGRYYFDYWGQGTLVTVSS
VL: not shown
B7: L1000H1032 (antibody, V domains shown)
VH: EVQLVESGGGLVQPGGSLRLSCAASGFTFSRNAMFWVRQAPGKGLEWVSGIGTGGATNYADSVKGRFTISRDNAKNSLYLQMNSLRAEDMAVYYCARGRYYFPWWGQGTLVTVSS
VL: not shown
B8: L1000H1026 (antibody, V domains shown)
VH: EVQLVESGGGLVQPGGSLRLSCAGSGFTFSRNAMFWVRQAPGKGLEWVSGIGTGGATSYADSVKGRFTISRDNAKNSLYLQMNSLRAEDTAVYYCARGRYYFPWWGQGTLVTVSS
VL: not shown
B9: L1000H1022 (antibody, V domains shown)
VH: EVQLVQSGGGLVHPGGSLRLSCAGSGFTFSRNAMFWVRQAPGKGLEWVSGIGTGGATSYADSVKGRFTISRDNAKNSLYLQMNSLRAEDTAVYYCARGRYYFPWWGQGTLVTVSS
VL: not shown
B10: L1000H1029 (antibody, V domains shown)
VH: EVQLVESGGGLVQPGGSLRLSCAASGFTFSRNAMFWVRQAPGKGLEWVSGIGTGGATSYADSVKGRFTISRDNAKNSLYLQMNSLRAEDMAVYYCARGRYYFPWWGQGTLVTVSS
VL: not shown
B11: L1000H1023 (antibody, V domains shown)
VH: EVQLVESGGGLVHPGGSLRLSCAGSGFTFSRNAMFWVRQAPGKGLEWVSGIGTGGATSYADSVKGRFTISRDNAKNSLYLQMNSLRAEDTAVYYCARGRYYFPWWGQGTLVTVSS
VL: not shown
B12: L1000H1025 (antibody, V domains shown)
VH: EVQLVQSGGGLVHPGGSLRLSCAASGFTFSRNAMFWVRQAPGKGLEWVSGIGTGGATSYADSVKGRFTISRDNAKNSLYLQMNSLRAEDTAVYYCARGRYYFPWWGQGTLVTVSS
VL: not shown
B13: L1000H1014 (antibody, V domains shown)
VH: EVQLVQSGGGLVQPGGSLRLSCAASGFTFSRNAMFWVRQAPGKGLEWVSGIGTGGATNYADSVKGRFTISRDNAKNSLYLQMNSLRAEDMAVYYCARGRYYFDYWGQGTLVTVSS
VL: not shown
B14: L1000H1010 (antibody, V domains shown)
VH: EVQLVQSGGGLVQPGGSLRLSCAGSGFTFSRNAMFWVRQAPGKGLEWVSGIGTGGATNYADSVKGRFTISRDNAKNSLYLQMNSLRAEDMAVYYCARGRYYFDYWGQGTLVTVSS
VL: not shown
B15: L1000H1031 (antibody, V domains shown)
VH: EVQLVESGGGLVQPGGSLRLSCAASGFTFSRNAMFWVRQAPGKGLEWVSGIGTGGATSYADSVKGRFTISRDNAKNSLYLQMNSLRAEDTAVYYCARGRYYFDYWGQGTLVTVSS
VL: not shown
B16: L1000H1036 (antibody, V domains shown)
VH: EVQLVQSGGGLVHPGGSLRLSCAGSGFTFSRNAMFWVRQAPGEGLEWVSGIGTGGATNYADSVKGRFTISRDNAKNSLYLQMNSLRAEDMAVYYCARGRYYFDYWGQGTLVTVSS
VL: not shown
B17: L1000H1024 (antibody, V domains shown)
VH: EVQLVQSGGGLVQPGGSLRLSCAGSGFTFSRNAMFWVRQAPGKGLEWVSGIGTGGATSYADSVKGRFTISRDNAKNSLYLQMNSLRAEDTAVYYCARGRYYFPWWGQGTLVTVSS
VL: not shown
B18: L1000H1037 (antibody, V domains shown)
VH: EVQLVQSGGGLVHPGGSLRLSCAGSGFTFSRNAMFWVRQAPGKGLEWVSGIGTGGATNYADSVKGRFTISRDEAKNSLYLQMNSLRAEDMAVYYCARGRYYFDYWGQGTLVTVSS
VL: not shown
B19: L1000H1012 (antibody, V domains shown)
VH: EVQLVQSGGGLVHPGGSLRLSCAGSGFTFSRNAMFWVRQAPGKGLEWVSGIGTGGATSYADSVKGRFTISRDNAKNSLYLQMNSLRAEDTAVYYCARGRYYFDYWGQGTLVTVSS
VL: not shown
B20: L1000H1035 (antibody, V domains shown)
VH: EVQLVQSGGGLVHPGGSLRLSCAGSGFTFSRNAMHWVRQAPGKGLEWVSGIGTGGATNYADSVKGRFTISRDNAKNSLYLQMNSLRAEDMAVYYCARGRYYFDYWGQGTLVTVSS
VL: not shown
B21: L1000H1020 (antibody, V domains shown)
VH: EVQLVQSGGGLVHPGGSLRLSCAGSGFTFSRNAMFWVRQAPGKGLEWVSGIGTGGATSYADSVKGRFTISRDNAKNSLYLQMNSLRAEDMAVYYCARGRYYFPWWGQGTLVTVSS
VL: not shown
B22: L1000H1027 (antibody, V domains shown)
VH: EVQLVESGGGLVHPGGSLRLSCAASGFTFSRNAMFWVRQAPGKGLEWVSGIGTGGATSYADSVKGRFTISRDNAKNSLYLQMNSLRAEDTAVYYCARGRYYFPWWGQGTLVTVSS
VL: not shown
B23: L1000H1028 (antibody, V domains shown)
VH: EVQLVQSGGGLVQPGGSLRLSCAASGFTFSRNAMFWVRQAPGKGLEWVSGIGTGGATSYADSVKGRFTISRDNAKNSLYLQMNSLRAEDTAVYYCARGRYYFPWWGQGTLVTVSS
VL: not shown
B24: L1000H1008 (antibody, V domains shown)
VH: EVQLVQSGGGLVHPGGSLRLSCAGSGFTFSRNAMFWVRQAPGKGLEWVSGIGTGGATNYADSVKGRFTISRDNAKNSLYLQMNSLRAEDTAVYYCARGRYYFDYWGQGTLVTVSS
VL: not shown
B25: L1000H1001 (antibody, V domains shown)
VH: EVQLVESGGGLVQPGGSLRLSCAASGFTFSRNAMFWVRQAPGKGLEWVSGIGTGGATSYADSVKGRFTISRDNAKNSLYLQMNSLRAEDTAVYYCARGRYYFPWWGQGTLVTVSS
VL: not shown
B26: L1000H1016 (antibody, V domains shown)
VH: EVQLVQSGGGLVHPGGSLRLSCAGSGFTFSRNAMFWVRQAPGKGLEWVSGIGTGGATNYADSVKGRFTISRDNAKNSLYLQMNSLRAEDMAVYYCARGRYYFPWWGQGTLVTVSS
VL: not shown

Target: T1, soluble human IL-4Rα (sIL-4Rα; PEPRO …)
Assay: ELISA, coated sIL-4Rα, culture supernatant
Procedure: Sample to be tested: For each antibody of the present invention, 10 μl and 2 μl of the culture supernatant of Expi293 cells expressing the antibody after transient transfection (the medium was Expi293 Expression Medium, Invitrogen, Catalog Number: A1435102; suspension culture was performed for 4 days at 100 rpm in a 8% CO2 incubator) were respectively added to 990 μl and 998 μl of PBS to prepare antibody samples to be tested of 1:100 and 1:500 dilutions.
100 μl of 100 μg/ml sIL-4Rα solution was added to 9.90 ml of PBS, mixed up and down, and then an antigen coating buffer of 1.0 μg/ml was obtained. The prepared antigen coating buffer was added to a 96-well ELISA plate (Corning) with a volume of 100 μl per well. The 96-well ELISA plate was incubated overnight in a refrigerator at 4° C. On the next day, the solution therein was discarded, and PBS containing 2% BSA was added to the 96-well ELISA plate row by row with a volume of 300 μl per well. The 96-well ELISA plate was incubated for 2 hours in a refrigerator at 4° C. Then the PBS containing 2% BSA was discarded and the plate was washed 3 times with PBST. Diluted antibodies to be tested were sequentially added to the corresponding wells, while the normal cell culture supernatants, as negative control samples, were added too. Three duplicate wells were made for each sample with a volume of 100 μl per well. The ELISA plate was wrapped with preservative film (or covered) and incubated for 1 h at 10° C. in a constant temperature incubator. Subsequently, the 96-well ELISA plate was taken out, and the solution therein was discarded. After washing with PBST for 3 times, TMB solution (Solarbio, Catalog Number: PR1200) was added to the 96-well ELISA plate row by row with a volume of 100 μl per well. The 96-well ELISA plate was placed at room temperature for 5 minutes, and 2 M H2SO4 solution was added in immediately to terminate the reaction. The 96-well ELISA plate was placed in flexstation 3 (Molecular Devices), the values of OD450 were read, and the data were collected, calculated and analyzed. Results were expressed relative to the affinity of control antibody 1.

Row | Binder | OD450/OD450 Control antibody 1
1 | B1 | 0.37 ratio to control antibody 1
2 | B2 | 0.2 ratio to control antibody 1
3 | B3 | 0.38 ratio to control antibody 1
4 | B4 | 0.65 ratio to control antibody 1
5 | B5 | 0.35 ratio to control antibody 1
6 | B6 | 0.56 ratio to control antibody 1
7 | B7 | 0.53 ratio to control antibody 1
8 | B8 | 0.11 ratio to control antibody 1
9 | B9 | 0.18 ratio to control antibody 1
10 | B10 | 0.8 ratio to control antibody 1
11 | B11 | 0.63 ratio to control antibody 1
12 | B12 | 0.21 ratio to control antibody 1
13 | B13 | 1.06 ratio to control antibody 1
14 | B14 | 0.11 ratio to control antibody 1
15 | B15 | 1.14 ratio to control antibody 1
16 | B16 | 0.1 ratio to control antibody 1
17 | B17 | 0.26 ratio to control antibody 1
18 | B18 | -0.01 ratio to control antibody 1
19 | B19 | 0.18 ratio to control antibody 1
20 | B20 | 0.22 ratio to control antibody 1
21 | B21 | 0.23 ratio to control antibody 1
22 | B22 | 0.44 ratio to control antibody 1
23 | B23 | 0.33 ratio to control antibody 1
24 | B24 | 0.21 ratio to control antibody 1
25 | B25 | 0.7 ratio to control antibody 1
26 | B26 | 0.61 ratio to control antibody 1
